Residue numbers refer to the chain shown, from its start.
B1: SNAP-SHP1-cSH2 (domain or fragment)
chain: WYHGHMSGGQAETLLQAKGEPWTFLVRESLSQPGDFVLSVLSDQPKAGPGSPLRVTHIKVMCEGGRYTVGGLETFDSLTDLVEHFKKTGIEEASGAFVYLRQPY
B2: His10-BTLA^ICD BTLA^FFFY, pre-phosphorylated (domain or fragment)
chain: DTAGREINLVDAHLKSEQTEASTRQNSQVLLSETGIFDNDPDLCFRMQEGSEVFSNPCLEENKPGIVFASLNHSVIGPNSRLARNVKEAPTEYASICVRS
modifications: pre-phosphorylated with Fyn; lone tyrosine (Y282) in the ITSM
B3: His10-BTLA^ICD BTLA^FFYF, pre-phosphorylated (domain or fragment)
chain: B2 chain with F68Y, Y93F
modifications: pre-phosphorylated with Fyn; lone tyrosine (Y257) in the ITIM

Legend:
[1] = target: B3; assay: SPR
SNAP-SHP2-cSH2 = assay: SPR

Binder: B1
- Kd [1]: 1.8 µM

Binder: B2
- Kd (SNAP-SHP2-cSH2): 1.1 µM

Binder: B3
- Kd (SNAP-SHP2-cSH2): 1.1 µM

— paper PMC8631942 (2021)
